From the nanobody polyreactivity screen of Harvey et al. (2022)

Assay: yeast display, Sf9 membrane polyspecificity reagent, FACS + sequencing; frameworks hold sequencing errors
Procedure, shortened: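 In a synthetic yeast display library (Saccharomyces cerevisiae BJ5465), nanobody expression was induced with galactose for 36–48 hours. FACS gates were set low and high (top ~1%) using anti-HA fluorescence for expression and streptavidin fluorescence for binding of the Sf9 membrane reagent. Each polyreactivity label is drawn from the gate of origin.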

Sequence | polyreactivity (PSR sort gate)
QVQLVESGGGLVQAGGSLRLSCAASGFIFRRNAMGRYRQAPGKERELVAAITSRGGSTYYADSVKGRFTISRDNAKHTVYLQMNSLKPEDTAVYYCAAKFPSRFYSFVQYYYWGQVTQVTVSS | high polyreactivity
QVQLVESGGGLVQAGGSLRLSCAASGFTFYSYPLGWYRQAPGKERELVAAITRGGRTYYADSVKGRFTISRDNAKTTVYLQMNSLKPDDSAVSYCNATAGHGYYYWGQGTQVTVSS | high polyreactivity
QVQLVESGGGLVQAGGSLRLSCAACGRTLVRYAMGWYRQAPGKERELVATITRGGSTNYADSVKGRFTISRDNAKNTVYLQMNSLKPEDTAVYYCARDLYYSSRYSPYGRYDYWGQGTQVTVSS | high polyreactivity
QVQLVESCGGLVQAGGSLRLSCAASGRTFGYYAMGWYRQAPGNERELVAAISRGGRTNYADSVKGRFTISRDNAKNTVYLQMNSLKPEDTAVYYCAKSGTIPRYTASYSLLDYWGPGTQVTVSS | low polyreactivity
QVQLVESGGGLVQAGGSLRLSCAASGFTLYVNAKGWYRQAPGKERELVAAISWSGGSTYYADSVKGRFTISRDNAKNTVYLQMNSLKPEDTAVYYCNAKYHRRLQWGTRYYYWGQGTQVTVSS | high polyreactivity
QVQLVESGGGLVQAGGSLRLSCAASGITFDGYAMGWDRQAPGKERELVAVISWSAGSTYADSVKGRFTISRDNAKNTVYLQMNSLKPEDTAVYYGNARTTYRSSRYRRYEYWGQGTQVTVSS | high polyreactivity
QVQLVESGGGLVQAGGSLRLSCAASGATLVWNTMGWCRQAPGTERELVAGITSGGSTKYADSVKGRFTISRDNAKNTVYLQMKRLKPEDTAVYYCAADCYGQAIFIYDYWGQGTQVTVSS | low polyreactivity
QVQLVESGRGLVQAGGSLRLSCAASGSTFYIYAMGWYRQAPGKERELVAAISTTDGTTYYADSVKGRFTISRDNAKNTVYLQMNSLKPEDTAVYYCAAEWFGSVQPAYDYWGQGTQVTVSS | high polyreactivity
QVQLVESGGGLVQAGGSLRLSCAASGRTFYVYSMGWYRQAPGKERELVAAITASGGSTYYADSVKGRFTLSRDNAKNTVYLQMHSLKPEDTAVYYCAARVVTRVRGVGYNYWGHGTQVTVSS | high polyreactivity
QVQLVESGGGLVQAGGSLRLSCAASGSTFYLYTMGWYRQAPGKERELVAASSINGGITYYADSVKGRFTISRDNAKNTVYFQMYSLKPEDTAVYYCAKSSGQTDVGSFYYRLDYWGQGTQVTVSS | low polyreactivity
QVQLVESGGGLVQAGGSLRLSCAASGSTFWYAMGWYRQAPGKERELVAAITARGGRTYYADSVKGRFTISRDNAKNTVYLQMNSLKPEDTAVYYCARLSYAGGQWIIGKYDYWGQGTQVTVSS | high polyreactivity
QVQLVETGGGLVQAGGSLRLSCAASGFTLYYYARGWYRQAPGKERELVAAITARGVSTYADSVKGRFTISRDNAKNTVYLQMNSLKPEDTAVYYCAADRRYNVIGEFGYWGQGTQVTVSS | low polyreactivity
QVQLVESGGGLVQAGGSLRLSCAASGSNFRPYAMGWYRPAPGKERELVAAISYRGGSTYYADSVKGRFTISRDNAKNTVYLQMNSLKPEDTAVYYCAADSREEGDYWGQGTQVTVSS | low polyreactivity
QVQLVESGGGLVQAGGSLRLSCAASGRIFEHYAMGWYRQAPGKERELVAAITVSVGSTYYADSVKGRFTISRDNAKNTVYLEMNSLKPEDTAVYYCAAGIHCRYARDWYEYWGQGTQVTVSS | low polyreactivity
QVQLVESGGGLVQAGGSLRLSCAASGRTFYFYTKGWYRQAPGKERELVATAITSGGSTNYADSVKGRFTISRDNAKNTVYLQMNSLKPEDTAVYYCNARYTYLWSSLYYWGQGTQVTVSS | low polyreactivity
QVQLVESGGGLVQAGGSLRLSCAASGSTLGRYTLGWYRQAPGNERELVAAIRASGTSTYYADSVKGRFTISRDNAKNTVYLQMNSLKPEDTAVYYCNALQFGTVRLDSWGQGTQVTVSS | low polyreactivity
QVQHVESGGGLVQAGGSLRLSCAATGRTFRHYAMGWYRLAPGKERELVAAISGSGGRTYYADSVKGRFTISRDNAKNTVYLQMISLKPEDTAVYYCNAYTWTYGEYEYWGQGTQVTVSS | high polyreactivity
